Legend:
[1] = system: Connaught BCG within primary CD14+ human monocytes; format: cell-based
[2] = system: Mtb H37Rv within primary CD14+ human monocytes; format: cell-based, Mycobacterium tuberculosis
[3] = system: mycobacteria within iMac-WT mouse cells; format: cell-based; conditions: human GzmA on mouse iMac-WT cells
[4] = system: mycobacteria within iMac CD14KO cells; assay: MGIA in iMac CD14KO cells; format: cell-based, mouse
[5] = system: mycobacteria within iMac TLR4KO cells; assay: MGIA in iMac TLR4KO cells; format: cell-based, mouse
mycobacteria BCG-GFP = format: binding
[6] = thawed aliquots tested up to a week after thawing
[7] = system: human monocytes infected with BCG-GFP; assay: Phagocytic score, BCG-GFP uptake by monocytes; conditions: 2 h of infection with BCG-GFP
Experimental: Monocytes were treated or not with GzmA, after which BCG-GFP was used to infect cells for 2 hours. Cells were then washed twice with FACS buffer and processed by flow cytometry. The phagocytic score was measured as previously described (Ackerman et al., 2011).

CD14 = target: T1, CD14 (Homo sapiens, UniProt P08571); assay: Immunoprecipitation with anti-GzmA, probed for CD14; conditions: human monocyte lysates, infected and uninfected cells
T1 sequence (P08571 20-345): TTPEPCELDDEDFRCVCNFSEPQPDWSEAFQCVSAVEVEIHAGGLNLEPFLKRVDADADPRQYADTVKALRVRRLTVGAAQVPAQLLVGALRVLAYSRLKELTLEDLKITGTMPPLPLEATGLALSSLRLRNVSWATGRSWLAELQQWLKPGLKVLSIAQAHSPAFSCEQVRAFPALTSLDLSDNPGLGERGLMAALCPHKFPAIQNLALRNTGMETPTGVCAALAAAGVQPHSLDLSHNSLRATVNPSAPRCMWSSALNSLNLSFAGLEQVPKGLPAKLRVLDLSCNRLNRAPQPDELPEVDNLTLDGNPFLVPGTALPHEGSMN

TLR4 = TLR4 (Homo sapiens, UniProt O00206); assay: Immunoprecipitation with anti-GzmA, probed for TLR4; conditions: human monocyte lysates, infected and uninfected cells
TLR4, sequence (O00206 24-839): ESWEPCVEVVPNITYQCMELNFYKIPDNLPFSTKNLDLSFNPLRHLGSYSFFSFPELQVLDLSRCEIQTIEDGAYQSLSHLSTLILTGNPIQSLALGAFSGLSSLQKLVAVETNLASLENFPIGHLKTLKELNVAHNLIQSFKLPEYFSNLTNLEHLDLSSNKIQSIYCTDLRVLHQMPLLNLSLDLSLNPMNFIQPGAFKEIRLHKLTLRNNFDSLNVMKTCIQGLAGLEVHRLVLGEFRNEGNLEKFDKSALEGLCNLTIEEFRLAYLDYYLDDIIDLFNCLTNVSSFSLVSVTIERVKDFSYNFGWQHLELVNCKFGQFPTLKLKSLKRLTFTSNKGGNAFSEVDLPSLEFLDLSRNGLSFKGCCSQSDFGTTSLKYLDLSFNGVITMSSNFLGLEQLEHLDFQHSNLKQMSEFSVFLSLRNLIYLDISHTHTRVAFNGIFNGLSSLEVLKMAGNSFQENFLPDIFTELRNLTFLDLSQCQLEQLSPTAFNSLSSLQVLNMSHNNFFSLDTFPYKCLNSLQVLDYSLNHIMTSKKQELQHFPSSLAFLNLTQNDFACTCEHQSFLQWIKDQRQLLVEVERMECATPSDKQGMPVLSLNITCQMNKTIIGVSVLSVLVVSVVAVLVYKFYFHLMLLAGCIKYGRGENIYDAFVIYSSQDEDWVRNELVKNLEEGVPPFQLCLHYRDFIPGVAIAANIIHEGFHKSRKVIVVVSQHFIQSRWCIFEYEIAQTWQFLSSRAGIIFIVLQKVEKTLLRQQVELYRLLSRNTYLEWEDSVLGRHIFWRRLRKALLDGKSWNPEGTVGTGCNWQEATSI

PDIA1 = PDIA1 (Homo sapiens, UniProt P07237); assay: Incubation of GzmA-WT with recombinant PDIA1 (silver stain, anti-GzmA WB); format: biochemical; design: The cDNA of human PDIA1 (residues 18-479) was cloned into a pET-23 vector expression system; His-tag (N); made in house; host or cells: E. coli BL21(DE3); conditions: fresh PDIA1; not present with heat-inactivated PDIA1
PDIA1, sequence (P07237 18-479): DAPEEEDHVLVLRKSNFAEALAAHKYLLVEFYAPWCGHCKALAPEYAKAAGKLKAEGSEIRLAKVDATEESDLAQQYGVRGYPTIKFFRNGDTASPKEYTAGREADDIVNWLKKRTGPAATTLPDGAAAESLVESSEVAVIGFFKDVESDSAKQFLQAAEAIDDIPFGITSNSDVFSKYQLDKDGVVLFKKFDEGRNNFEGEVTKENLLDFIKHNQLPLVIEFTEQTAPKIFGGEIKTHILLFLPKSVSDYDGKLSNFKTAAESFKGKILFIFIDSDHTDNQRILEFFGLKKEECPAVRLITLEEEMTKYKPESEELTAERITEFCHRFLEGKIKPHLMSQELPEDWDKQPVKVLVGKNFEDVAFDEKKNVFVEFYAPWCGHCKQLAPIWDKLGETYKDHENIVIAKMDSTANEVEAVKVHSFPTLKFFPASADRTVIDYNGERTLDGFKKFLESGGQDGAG
Experimental: Expression and purification of human recombinant PDIA1. The cDNA of human PDIA1 (residues 18-479) was cloned into a pET-23 vector expression system. An N-terminal His-tag was engineered to facilitate purification. Sequence verified plasmids were transfected into BL21(DE3) cells. Cells were grown in LB medium until an OD600 of ˜0.6. Protein expression was induced with 0.5 mM IPTG. After overnight incubation at 37° C., cells were harvested by centrifugation. Soluble PDI protein was extracted by treating the cells with a nonionic detergent (B-PER, Thermo) followed by purification by affinity chromatography using a TALON resin as described before (Chinnaraj et al., 2021). Briefly, fractions eluted at 200 mM imidazole were pooled, dialyzed overnight in Tris 20 mM pH 7.4 145 mM NaCl to remove imidazole, and then loaded into size exclusion chromatography column 5200 10/300 (Cytiva) to isolate monomeric protein. Final protein concentrations were determined by measuring the absorbance at 280 nm, and using molar extinction coefficient of PDIA1 (i.e., 45755 M-lcm-1). Chemical identity was verified by mass spectrometry. Purify was >98%, as judged by SDS-PAGE.

B1: GzmA-WT: recombinant wild-type human Granzyme A, homodimeric serine protease, purified from HEK293T supernatants (protein)
chain: IIGGNEVTPHSRPYMVLLSLDRKTICAGALIAKDWVLTAAHCNLNKRSQVILGAHSITREEPTKQIMLVKKEFPYPCYDPATREGDLKLLQLMEKAKINKYVTILHLPKKGDDVKPGTMCQVAGWGRTHNSASWSDTLREVNITIIDRKVCNDRNHYNFNPVIGMNMVCAGSLRGGRDSCNGDSGSPLLCEGVFRGVTSFGLENKCGDPRGPGVYILLSKKHLNWIIMTIKGAV
modifications: left off: small tags and cut ends
notes: recombinant wild-type human Granzyme A, homodimeric serine protease, purified from HEK293T supernatants
With B1 the “GzmA inhibitory activity after CD14 neutralization (MGIA)” value [1] was “lost their inhibitory activity”, the “GzmA inhibitory activity after TLR2 neutralization (MGIA)” value [1] was “does not reverse” and the “GzmA inhibitory activity after TLR4 neutralization (MGIA)” value [1] was “reversed GzmA-mediated mycobacterial growth inhibition”. For the same molecule, the “intracellular replication of pre-opsonized mycobacteria (excess protein removed)” value [1] was “reduced intracellular replication capacity”, the “mycobacterial growth inhibition, GzmA added prior to or during infection” value [1] was “maximal inhibitory effects” and the “mycobacterial growth inhibition, GzmA added to already infected cells” value [1] was “did not mediate inhibition”. For the same molecule, the “inhibition of intracellular mycobacterial replication (MGIA)” value ([1]; 72 h) was “inhibits the intracellular replication of mycobacteria”, the “inhibition of intracellular Mtb (MGIA)” value ([2]; 200 nM GzmA, Mtb MOI 1, human monocytes) was “inhibited Mtb” and the “GzmA inhibitory activity after CD14 neutralization, Mtb” value ([2]; Mtb-infected monocytes, anti-CD14) was “reversed GzmA-mediated mycobacterial growth inhibition”. For the same molecule, the “GzmA inhibitory activity after TLR4 neutralization, Mtb” value ([2]; Mtb-infected monocytes, anti-TLR4) was “reversed GzmA-mediated mycobacterial growth inhibition”, the “inhibition of mycobacterial growth in iMac-WT cells” value [3] was “modestly inhibit mycobacterial growth” and the “inhibition of intracellular mycobacterial growth in CD14-deficient iMac cells” value [4] was “incapable of inhibiting intracellular mycobacterial growth”. The “inhibition of intracellular mycobacterial growth in TLR4-deficient iMac cells” value [5] was “incapable of inhibiting intracellular mycobacterial growth”, the binding to mycobacteria (mycobacteria BCG-GFP) was “bound mycobacteria” and the “stability at 4° C. (retention of substrate activity)” value [6] was “continued to retain its activity”. For the same molecule, the phagocytic score [7] was “higher phagocytic score compared to untreated cells”, the “binding to CD14 (immunoprecipitation)” value (CD14) was “bound to CD14” and the “binding to TLR4 (immunoprecipitation)” value (TLR4) was “bound to GzmA-WT”. For the same molecule, the “conversion of homodimer by PDIA1” value (PDIA1) was “monomeric band at 27 KDa”.
